# Reference: paper PMC7954794, “Protein context shapes the specificity of SH3 domain-mediated interactions in vivo” (Nature Communications, 2021)
# B1: BOI1 (protein, UniProt P38041 1-980, looked up)
# BEM1-interacting protein 1: MSLEGNTLGKGAKSFPLYIAVNQYSKRMEDELNMKPGDKIKVITDDGEYNDGWYYGRNLRTKEEGLYPAVFTKRIAIEKPENLHKSPTQESGNSGVKYGNLNDSASNIGKVSSHQQENRYTSLKSTMSDIDKALEELRSGSVEQEVSKSPTRVPEVSTPQLQDEQTLIQEKTRNEENTTHDSLFSSTADLNLSSESLKNISKSNISTKSLEPSSESVRQLDLKMAKSWSPEEVTDYFSLVGFDQSTCNKFKEHQVSGKILLELELEHLKELEINSFGIRFQIFKEIRNIKSAIDSSSNKLDADYSTFAFENQAAQLMPAATVNRDEIQQQISSKCNKLSSESSDRKSSSVTTELQRPSSVVVNPNFKLHDPAEQILDMTEVPNLFADKDIFESPGRAPKPPSYPSPVQPPQSPSFNNRYTNNNARFPPQTTYPPKNKNPTVYSNGLIPNSSTSSDNSTGKFKFPAMNGHDSNSRKTTLTSATIPSINTVNTDESLPAISNISSNATSHHPNRNSVVYNNHKRTESGSSFVDLFNRISMLSPVKSSFDEEETKQPSKASRAVFDSARRKSSYGHSRDASLSEMKKHRRNSSILSFFSSKSQSNPTSPTKQTFTIDPAKMTSHSRSQSNSYSHARSQSYSHSRKHSLVTSPLKTSLSPINSKSNIALAHSETPTSSNNKEAVSQPSEGKHKHKHKHKSKHKHKNSSSKDGSSEEKSKKKLFSSTKESFVGSKEFKRSPSELTQKSTKSILPRSNAKKQQTSAFTEGIRSITAKESMQTADCSGWMSKKGTGAMGTWKQRFFTLHGTRLSYFTNTNDEKERGLIDITAHRVLPASDDDRLISLYAASLGKGKYCFKLVPPQPGSKKGLTFTEPRVHYFAVENKSEMKAWLSAIIKATIDIDTSVPVISSYATPTIPLSKAQTLLEEARLQTQLRDAEEEEGRDQFGWDDTQNKRNSNYPIEQDQFETSDYLESSAFEYPGGRL
# Test system: Abp1 PPIs
# Assay: DHFR-PCA of Abp1 SH3-swapped baits (Fig. 2B-D, S2C, S2F);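 for Protein-protein interaction distance between Abp1 SH3-swapped baits, to ABP1: Euclidean distance between DHFR-PCA score profiles of the baits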;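 for Protein-protein interaction distance between Abp1 SH3-swapped baits, to BEM1-2: Euclidean distance between DHFR-PCA score profiles of the baits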;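 for Protein-protein interaction distance between Abp1 SH3-swapped baits, to BOI1: Euclidean distance between DHFR-PCA score profiles of the baits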;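 for Protein-protein interaction distance between Abp1 SH3-swapped baits, to BZZ1-1: Euclidean distance between DHFR-PCA score profiles of the baits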
# Format: cell-based, Saccharomyces cerevisiae
# In short: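 Interactions were scored by DHFR protein-fragment complementation. DHFR F[1,2]-tagged Abp1 strains, whose SH3 was swapped for yeast or human ortholog domains, were crossed on YPD at 30 °C for 48 h with a 1536-format array of 575 prey-DHFR F[3] strains and 40 negatives, giving four replicates per pair. PCA selection lasted 4 days after double diploid selection.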
# [1] = number of PPIs, difference, Abp1 SH3-swapped with the listed SH3, Fig2D,S2F
molecule,measurement,setting,value
B1,"Protein-protein interaction distance between Abp1 SH3-swapped baits, to ABP1","Abp1 bait with swapped SH3, distance to bait with ABP1 SH3, sheet Fig2C",11.59
same,"Protein-protein interaction distance between Abp1 SH3-swapped baits, to BBC1","distance to Abp1 bait with BBC1 SH3, sheet Fig2C",9.448
same,"Protein-protein interaction distance between Abp1 SH3-swapped baits, to BEM1-1","distance to Abp1 bait with BEM1-1 SH3, sheet Fig2C",8.19
same,"Protein-protein interaction distance between Abp1 SH3-swapped baits, to BEM1-2","distance to Abp1 bait with BEM1-2 SH3, sheet Fig2C",28.06
same,"Protein-protein interaction distance between Abp1 SH3-swapped baits, to BOI1","distance to Abp1 bait with BOI1 SH3, sheet Fig2C",0.00
same,"Protein-protein interaction distance between Abp1 SH3-swapped baits, to BOI2","distance to Abp1 bait with BOI2 SH3, sheet Fig2C",6.71
same,"Protein-protein interaction distance between Abp1 SH3-swapped baits, to BUD14","distance to Abp1 bait with BUD14 SH3, sheet Fig2C",11.14
same,"Protein-protein interaction distance between Abp1 SH3-swapped baits, to BZZ1-1","distance to Abp1 bait with BZZ1-1 SH3, sheet Fig2C",8.863
same,"Protein-protein interaction distance between Abp1 SH3-swapped baits, to BZZ1-2","distance to Abp1 bait with BZZ1-2 SH3, sheet Fig2C",6.782
same,"Protein-protein interaction distance between Abp1 SH3-swapped baits, to CDC25","distance to Abp1 bait with CDC25 SH3, sheet Fig2C",21
same,"Protein-protein interaction distance between Abp1 SH3-swapped baits, to CTTN","distance to Abp1 bait with CTTN SH3, sheet Fig2C",8.701
same,"Protein-protein interaction distance between Abp1 SH3-swapped baits, to CYK3","distance to Abp1 bait with CYK3 SH3, sheet Fig2C",21.68
same,"Protein-protein interaction distance between Abp1 SH3-swapped baits, to DBNL","distance to Abp1 bait with DBNL SH3, sheet Fig2C",8.616
same,"Protein-protein interaction distance between Abp1 SH3-swapped baits, to FUS1","distance to Abp1 bait with FUS1 SH3, sheet Fig2C",12.53
same,"Protein-protein interaction distance between Abp1 SH3-swapped baits, to HCLS1","distance to Abp1 bait with HCLS1 SH3, sheet Fig2C",12.36
same,"Protein-protein interaction distance between Abp1 SH3-swapped baits, to HOF1","distance to Abp1 bait with HOF1 SH3, sheet Fig2C",26.74
same,"Protein-protein interaction distance between Abp1 SH3-swapped baits, to HSE1","distance to Abp1 bait with HSE1 SH3, sheet Fig2C",7.847
same,"Protein-protein interaction distance between Abp1 SH3-swapped baits, to LSB1","distance to Abp1 bait with LSB1 SH3, sheet Fig2C",16.11
same,"Protein-protein interaction distance between Abp1 SH3-swapped baits, to LSB3","distance to Abp1 bait with LSB3 SH3, sheet Fig2C",16.12
same,"Protein-protein interaction distance between Abp1 SH3-swapped baits, to MYO3","distance to Abp1 bait with MYO3 SH3, sheet Fig2C",14.63
same,"Protein-protein interaction distance between Abp1 SH3-swapped baits, to MYO5","distance to Abp1 bait with MYO5 SH3, sheet Fig2C",14.33
same,"Protein-protein interaction distance between Abp1 SH3-swapped baits, to NBP2","distance to Abp1 bait with NBP2 SH3, sheet Fig2C",10.48
same,"Protein-protein interaction distance between Abp1 SH3-swapped baits, to PEX13","distance to Abp1 bait with PEX13 SH3, sheet Fig2C",13.22
same,"Protein-protein interaction distance between Abp1 SH3-swapped baits, to PIN3","distance to Abp1 bait with PIN3 SH3, sheet Fig2C",13.58
same,"Protein-protein interaction distance between Abp1 SH3-swapped baits, to RVS167","distance to Abp1 bait with RVS167 SH3, sheet Fig2C",11.58
same,"Protein-protein interaction distance between Abp1 SH3-swapped baits, to SDC25","distance to Abp1 bait with SDC25 SH3, sheet Fig2C",29.16
same,"Protein-protein interaction distance between Abp1 SH3-swapped baits, to SHO1","distance to Abp1 bait with SHO1 SH3, sheet Fig2C",8.152
same,"Protein-protein interaction distance between Abp1 SH3-swapped baits, to SLA1-1","distance to Abp1 bait with SLA1-1 SH3, sheet Fig2C",23.94
same,"Protein-protein interaction distance between Abp1 SH3-swapped baits, to SLA1-2","distance to Abp1 bait with SLA1-2 SH3, sheet Fig2C",13.51
same,"Protein-protein interaction distance between Abp1 SH3-swapped baits, to SLA1-3","distance to Abp1 bait with SLA1-3 SH3, sheet Fig2C",15.75
same,"Protein-protein interaction distance between Abp1 SH3-swapped baits, to YSC84","distance to Abp1 bait with YSC84 SH3, sheet Fig2C",16.61
same,PPIs gained by Abp1 - SH3-dependent PPIs gained by Abp1,[1],1
same,SH3-dependent PPIs - SH3-dependent PPIs gained by Abp1,[1],2
same,SH3-dependent PPIs gained by Abp1,"number of PPIs, Abp1 SH3-swapped with the listed SH3, DHFR-PCA, Fig2D,S2F",1
